Among the data in paper PMC4191399 are Kd values, retold here.

A word on the Kd: it is a measure of binding affinity in units of concentration. A higher Kd goes with lower affinity.

In data set [1] the target is T1, RIG-I Q784A/K788A/R791A Q784A;K788A;R791A (Homo sapiens) (UniProt O95786).
T1 sequence: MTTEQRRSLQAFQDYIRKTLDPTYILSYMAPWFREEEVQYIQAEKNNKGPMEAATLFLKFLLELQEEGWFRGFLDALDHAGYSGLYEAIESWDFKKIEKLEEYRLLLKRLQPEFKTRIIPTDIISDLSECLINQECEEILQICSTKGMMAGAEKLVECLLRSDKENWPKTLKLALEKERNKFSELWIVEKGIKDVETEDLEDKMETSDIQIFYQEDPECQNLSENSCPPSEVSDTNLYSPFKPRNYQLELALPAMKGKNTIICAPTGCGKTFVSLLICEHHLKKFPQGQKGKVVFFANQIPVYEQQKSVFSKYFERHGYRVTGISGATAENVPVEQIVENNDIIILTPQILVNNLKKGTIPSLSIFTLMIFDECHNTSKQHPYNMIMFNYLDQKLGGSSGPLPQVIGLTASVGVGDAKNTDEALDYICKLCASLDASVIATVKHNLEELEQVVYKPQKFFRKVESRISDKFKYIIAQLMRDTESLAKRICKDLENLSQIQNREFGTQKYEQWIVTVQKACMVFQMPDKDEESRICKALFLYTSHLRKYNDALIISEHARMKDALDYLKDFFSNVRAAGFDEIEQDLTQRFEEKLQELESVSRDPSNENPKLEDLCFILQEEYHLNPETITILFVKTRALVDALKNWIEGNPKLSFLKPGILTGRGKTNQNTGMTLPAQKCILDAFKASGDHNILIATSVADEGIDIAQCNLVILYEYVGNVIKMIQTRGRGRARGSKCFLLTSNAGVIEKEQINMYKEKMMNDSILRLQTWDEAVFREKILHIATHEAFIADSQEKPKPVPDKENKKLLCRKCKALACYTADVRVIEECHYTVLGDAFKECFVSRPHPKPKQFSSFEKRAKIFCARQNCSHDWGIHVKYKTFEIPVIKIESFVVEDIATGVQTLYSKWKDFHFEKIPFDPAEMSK
Kind of data set: fluorescence polarization. The settings on record: internal 6-carboxyfluorescein in backbone between U12 and C13 (central tetraloop bases); 25 mM MOPS pH 7.4, 150 mM KCl, 2 mM DTT, 2 mM MgCl2, 0.01% Triton X-100, 1 nM RNA, room temperature, 1 h.

Data set [2] has as its target T2, RIG-I K788A/R791A K788A;R791A (Homo sapiens) (UniProt O95786).
T2 sequence: T1 sequence with A784Q
The experiment in a line: fluorescence polarization. The settings on record: internal 6-carboxyfluorescein in backbone between U12 and C13 (central tetraloop bases); 25 mM MOPS pH 7.4, 150 mM KCl, 2 mM DTT, 2 mM MgCl2, 0.01% Triton X-100, 1 nM RNA, room temperature, 1 h.

Positions count from the first letter of the chain named.

In the case of GGACGUACGUUUCGACGUACGUCC [5'OH10L-F], the Kd was determined as 172 nM in data set [1] and 166 nM in data set [2].
